Assay results: publication PMC9482650, “Quantitative fragmentomics allow affinity mapping of interactomes” (Nature Communications, 2022)

T1: USH1C_3, Q9Y6N9
T1 sequence (Q9Y6N9 447-547, limits assumed, looked up): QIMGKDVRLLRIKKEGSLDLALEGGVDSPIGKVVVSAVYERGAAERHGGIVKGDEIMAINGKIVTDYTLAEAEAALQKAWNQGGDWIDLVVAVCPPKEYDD

T2: LNX2_4, Q8N448
T2 sequence (Q8N448 595-690, limits assumed, looked up): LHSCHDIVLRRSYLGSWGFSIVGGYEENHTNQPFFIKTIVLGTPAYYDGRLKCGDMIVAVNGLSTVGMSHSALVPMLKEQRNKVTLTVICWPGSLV

T3: PTPN4, P29074
T3 sequence (P29074 512-599, limits assumed, looked up): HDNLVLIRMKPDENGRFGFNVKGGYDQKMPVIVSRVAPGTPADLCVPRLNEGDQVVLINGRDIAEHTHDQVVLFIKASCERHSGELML

T4: DVL1, O14640
T4 sequence (O14640 246-333, limits assumed, looked up): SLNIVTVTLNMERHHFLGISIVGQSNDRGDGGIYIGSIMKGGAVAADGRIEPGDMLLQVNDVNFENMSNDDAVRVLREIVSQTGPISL

T5: PDZD2_3, O15018
T5 sequence (O15018 581-682, limits assumed, looked up): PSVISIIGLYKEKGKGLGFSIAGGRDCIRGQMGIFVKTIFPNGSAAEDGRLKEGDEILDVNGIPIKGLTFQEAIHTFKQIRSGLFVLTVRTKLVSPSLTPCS

T6: NHERF3_2, Q5T2W1
T6 sequence (Q5T2W1 129-225, limits assumed, looked up): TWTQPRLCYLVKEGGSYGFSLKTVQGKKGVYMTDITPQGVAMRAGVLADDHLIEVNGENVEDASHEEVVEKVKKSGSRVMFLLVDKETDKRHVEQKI

T7: PARD6B, Q9BYG5
T7 sequence (Q9BYG5 152-260, limits assumed, looked up): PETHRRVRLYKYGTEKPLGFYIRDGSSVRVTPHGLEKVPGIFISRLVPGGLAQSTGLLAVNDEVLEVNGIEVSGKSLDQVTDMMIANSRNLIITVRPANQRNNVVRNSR

T8: SHANK2, Q9UPX8
T8 sequence (Q9UPX8 621-730, limits assumed, looked up): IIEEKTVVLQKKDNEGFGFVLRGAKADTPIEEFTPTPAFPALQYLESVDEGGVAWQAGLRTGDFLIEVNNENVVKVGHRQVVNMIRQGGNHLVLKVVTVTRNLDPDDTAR

T9: GIPC1, O14908
T9 sequence (O14908 128-223, limits assumed, looked up): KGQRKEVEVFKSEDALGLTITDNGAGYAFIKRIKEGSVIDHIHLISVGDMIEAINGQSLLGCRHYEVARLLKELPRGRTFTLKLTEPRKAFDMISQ

T10: GRIP1_1, Q9Y3R0
T10 sequence (Q9Y3R0 48-146, limits assumed, looked up): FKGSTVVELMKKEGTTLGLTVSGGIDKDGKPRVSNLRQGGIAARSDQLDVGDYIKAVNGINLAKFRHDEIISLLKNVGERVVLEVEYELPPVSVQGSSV

T11: MLLT4, P55196
T11 sequence (P55196 1002-1103, limits assumed, looked up): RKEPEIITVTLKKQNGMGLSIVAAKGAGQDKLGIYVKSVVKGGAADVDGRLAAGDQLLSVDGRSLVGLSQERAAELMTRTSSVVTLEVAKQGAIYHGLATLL

T12: SHROOM3, Q8TF72
T12 sequence (Q8TF72 20-120, limits assumed, looked up): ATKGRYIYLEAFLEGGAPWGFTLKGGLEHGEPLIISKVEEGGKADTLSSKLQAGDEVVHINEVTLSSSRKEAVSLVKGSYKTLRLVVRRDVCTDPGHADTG

T13: SNTB2, Q13425
T13 sequence (Q13425 110-208, limits assumed, looked up): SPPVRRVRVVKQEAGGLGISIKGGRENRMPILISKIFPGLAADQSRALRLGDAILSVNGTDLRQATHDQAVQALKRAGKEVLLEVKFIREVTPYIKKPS

T14: PDZD8, Q8NEN9
T14 sequence (Q8NEN9 361-459, limits assumed, looked up): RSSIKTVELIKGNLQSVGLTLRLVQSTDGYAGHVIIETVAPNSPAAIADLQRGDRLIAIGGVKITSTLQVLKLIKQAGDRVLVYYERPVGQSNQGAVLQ


How the values were obtained:
Assay in all cases: holdup assay
Set-up in all cases: key: below the threshold = too weak to quantify, mostly under pKd 3.1 to 4
Settings in all cases: plain residues with an end cap or a label only (N-terminal biotin on a linker: ttds)
USH1C_3, Q9Y6N9 = target: T1, USH1C_3, Q9Y6N9
MAGI1_4, Q96QZ7 = target: MAGI1_4, Q96QZ7
LNX2_4, Q8N448 = target: T2, LNX2_4, Q8N448
RIMS2, Q9UQ26 = target: RIMS2, Q9UQ26
PTPN4, P29074 = target: T3, PTPN4, P29074
DLG2_1, Q15700 = target: DLG2_1, Q15700
DVL1, O14640 = target: T4, DVL1, O14640
Inadl_7, Q8NI35 = target: Inadl_7, Q8NI35
PDZD2_3, O15018 = target: T5, PDZD2_3, O15018
MAGI3_5, Q5TCQ9 = target: MAGI3_5, Q5TCQ9
PARD3B_2, Q8TEW8 = target: PARD3B_2, Q8TEW8
NHERF3_2, Q5T2W1 = target: T6, NHERF3_2, Q5T2W1
MAGI1_5, Q96QZ7 = target: MAGI1_5, Q96QZ7
IL16_2, Q14005 = target: IL16_2, Q14005
PARD6B, Q9BYG5 = target: T7, PARD6B, Q9BYG5
SHANK2, Q9UPX8 = target: T8, SHANK2, Q9UPX8
GIPC1, O14908 = target: T9, GIPC1, O14908
GRIP1_1, Q9Y3R0 = target: T10, GRIP1_1, Q9Y3R0
DLG5_2, Q8TDM6 = target: DLG5_2, Q8TDM6
MLLT4, P55196 = target: T11, MLLT4, P55196
SHROOM3, Q8TF72 = target: T12, SHROOM3, Q8TF72
SNTB2, Q13425 = target: T13, SNTB2, Q13425
PDZD8, Q8NEN9 = target: T14, PDZD8, Q8NEN9

Sequence of MAGI3_5, Q5TCQ9 (Q5TCQ9 847-941): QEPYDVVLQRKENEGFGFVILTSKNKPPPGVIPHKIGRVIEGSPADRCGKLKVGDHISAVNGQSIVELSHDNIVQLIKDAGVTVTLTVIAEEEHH
Sequence of IL16_2, Q14005 (Q14005 350-450): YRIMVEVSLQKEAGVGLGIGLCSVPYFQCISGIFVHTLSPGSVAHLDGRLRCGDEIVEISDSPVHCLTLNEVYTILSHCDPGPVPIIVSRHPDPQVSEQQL
Sequence of MAGI1_5, Q96QZ7 (Q96QZ7 986-1098): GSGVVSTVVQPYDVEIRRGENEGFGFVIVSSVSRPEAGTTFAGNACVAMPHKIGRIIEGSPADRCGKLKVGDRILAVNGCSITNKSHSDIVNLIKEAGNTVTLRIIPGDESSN
Sequence of PARD3B_2, Q8TEW8 (Q8TEW8 376-471): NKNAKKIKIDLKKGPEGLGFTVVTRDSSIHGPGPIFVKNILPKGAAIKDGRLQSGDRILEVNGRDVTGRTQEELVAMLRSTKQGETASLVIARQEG
Sequence of RIMS2, Q9UQ26 (Q9UQ26 637-758): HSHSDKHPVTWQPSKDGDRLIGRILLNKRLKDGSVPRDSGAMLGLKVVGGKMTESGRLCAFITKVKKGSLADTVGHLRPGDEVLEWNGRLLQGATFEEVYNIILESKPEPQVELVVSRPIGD
Sequence of MAGI1_4, Q96QZ7 (Q96QZ7 other isoform, or with tags, fused parts or gaps): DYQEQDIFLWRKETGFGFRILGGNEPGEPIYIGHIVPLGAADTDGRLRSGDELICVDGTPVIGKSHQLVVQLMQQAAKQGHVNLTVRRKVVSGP
Sequence of DLG5_2, Q8TDM6 (Q8TDM6 714-800): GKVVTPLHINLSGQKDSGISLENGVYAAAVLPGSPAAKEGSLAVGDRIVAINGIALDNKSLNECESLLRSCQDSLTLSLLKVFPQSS
Sequence of Inadl_7, Q8NI35 (Q8NI35 1219-1332): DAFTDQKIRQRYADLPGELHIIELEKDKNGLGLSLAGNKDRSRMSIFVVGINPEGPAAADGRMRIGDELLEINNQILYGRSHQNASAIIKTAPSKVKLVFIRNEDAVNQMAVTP

| Binder | pKd (USH1C_3, Q9Y6N9) | pKd (MAGI1_4, Q96QZ7) | pKd (LNX2_4, Q8N448) | pKd (RIMS2, Q9UQ26) | pKd (PTPN4, P29074) | pKd (DLG2_1, Q15700) | pKd (DVL1, O14640) | pKd (Inadl_7, Q8NI35) | pKd (PDZD2_3, O15018) | pKd (MAGI3_5, Q5TCQ9) | pKd (PARD3B_2, Q8TEW8) | pKd (NHERF3_2, Q5T2W1) | pKd (MAGI1_5, Q96QZ7) | pKd (IL16_2, Q14005) | pKd (PARD6B, Q9BYG5) | pKd (SHANK2, Q9UPX8) | pKd (GIPC1, O14908) | pKd (GRIP1_1, Q9Y3R0) | pKd (DLG5_2, Q8TDM6) | pKd (MLLT4, P55196) | further results |
| --- | --- | --- | --- | --- | --- | --- | --- | --- | --- | --- | --- | --- | --- | --- | --- | --- | --- | --- | --- | --- | --- |
| DPLTPSRSQL [DGKK, Q5KSL6] | below the threshold | below the threshold | below the threshold | below the threshold | below the threshold | below the threshold | below the threshold | below the threshold | below the threshold | below the threshold | below the threshold | below the threshold | below the threshold | below the threshold | below the threshold | below the threshold | below the threshold | below the threshold | below the threshold | below the threshold | pKd (SHROOM3, Q8TF72): below the threshold; pKd (SNTB2, Q13425): below the threshold; pKd (PDZD8, Q8NEN9): below the threshold |
| HIVEALETDV [PBK, Q96KB5] | below the threshold | 4.34 | below the threshold | below the threshold | below the threshold | 4.74 | below the threshold | 4.4 | below the threshold | below the threshold | below the threshold | below the threshold | below the threshold | below the threshold | below the threshold | below the threshold | 5.37 | below the threshold | below the threshold | below the threshold | pKd (SHROOM3, Q8TF72): below the threshold; pKd (SNTB2, Q13425): 4.87; pKd (PDZD8, Q8NEN9): below the threshold |
| MERLRVETDV [ARHGEF16, Q5VV41] | below the threshold | below the threshold | below the threshold | below the threshold | 4.25 | 4.1 | below the threshold | below the threshold | below the threshold | below the threshold | below the threshold | below the threshold | below the threshold | below the threshold | below the threshold | below the threshold | 4.71 | below the threshold | below the threshold | below the threshold | pKd (SHROOM3, Q8TF72): below the threshold; pKd (SNTB2, Q13425): 4.42; pKd (PDZD8, Q8NEN9): below the threshold |
